The data set concerns the molecule itself. Nature of the data set: cryo-EM structure.

B1: TRPV3(Y564A) (natural protein, mouse, UniProt Q8K424 1-791, looked up)
chain: MNAHSKEMAPLMGKRTTAPGGNPVVLTEKRPADLTPTKKSAHFFLEIEGFEPNPTVTKTSPPIFSKPMDSNIRQCLSGNCDDMDSPQSPQDDVTETPSNPNSPSANLAKEEQRQKKKRLKKRIFAAVSEGCVEELRELLQDLQDLCRRRRGLDVPDFLMHKLTASDTGKTCLMKALLNINPNTKEIVRILLAFAEENDILDRFINAEYTEEAYEGQTALNIAIERRQGDITAVLIAAGADVNAHAKGVFFNPKYQHEGFYFGETPLALAACTNQPEIVQLLMENEQTDITSQDSRGNNILHALVTVAEDFKTQNDFVKRMYDMILLRSGNWELETMRNNDGLTPLQLAAKMGKAEILKYILSREIKEKPLRSLSRKFTDWAYGPVSSSLYDLTNVDTTTDNSVLEIIVYNTNIDNRHEMLTLEPLHTLLHTKWKKFAKYMFFLSFCFYFFYNITLTLVSYYRPREDEDLPHPLALTHKMSWLQLLGRMFVLIWATCISVKEGIAIFLLRPSDLQSILSDAWFHFVFFVQAVLVILSVFLYLFAYKEYLACLVLAMALGWANMLAYTRGFQSMGMYSVMIQKVILHDVLKFLFVYILFLLGFGVALASLIEKCSKDKKDCSSYGSFSDAVLELFKLTIGLGDLNIQQNSTYPILFLFLLITYVILTFVLLLNMLIALMGETVENVSKESERIWRLQRARTILEFEKMLPEWLRSRFRMGELCKVADEDFRLCLRINEVKWTEWKTHVSFLNEDPGPIRRTADLNKIQDSSRSNSKTTLYAFDELDEFPETSV
For the protein B1, the binding result is listed as “binds”.

For the origin of these results see PMC6128766 (Nature structural & molecular biology, 2018).
